Test system: ribosomal protein L5 (TbL5) (Trypanosoma brucei)
Experiment: EMSA
Conditions: EMSA: 10 mM Tris-HCl pH 7.4, 150 mM KCl, 0.1 mM DTT, 0.1 mM EDTA, 0.1% NP-40, 20 min room temperature; filter binding: 10 mM Tris pH 7.4, 1 mM EDTA, 100 mM …

Substance: T. brucei 5S rRNA
- Kd: 12 nM
